Measured values taken from publication PMC7979805.

Target: endogenous actin of neonatal rat cardiomyocytes (rat (endogenous in neonatal rat cardiomyocytes)) (UniProt P68035)
Assay: co-sedimentation; G-actin/F-actin fractionation of lysates of neonatal rat cardiomyocytes transduced with mCherry or mCherry-Tpm1.1 (G-Actin/F-actin In Vivo Assay Biochem Kit); ultracentrifugation 100,000 x g, 37 °C, 1 h; supernatant and pellet immunoblotted

percent of CAP2 in the F-actin fraction (cells expressing mCherry) [%] | percent of CAP2 in the F-actin fraction (cells expressing mCherry-Tpm1.1) [%] | percent of Tmod1 in the F-actin fraction (cells expressing mCherry) [%] | percent of Tmod1 in the F-actin fraction (cells expressing mCherry-Tpm1.1) [%] | Substance
28.6 | 25 |  |  | endogenous CAP2 of neonatal rat cardiomyocytes (from UniProt P52481 1-477) (natural protein)
 |  | 42.7 | 65.6 | endogenous Tmod1 of neonatal rat cardiomyocytes (from UniProt P70567 1-359) (natural protein)
